Data taken from US20170015742A1 (published 2017).
Residue numbers refer to the chain shown, from its start.

B1: hBDI-5H1.3 (antibody, V domains shown)
VH: EVTLRESGPALVKPTQTLTLTCTFSGFSLSTFGMGVGWIRQPPGKALEWLANIWWDDDKYYNPSLKNRLTISKDTSKNQVVLTMTNMDPVDTATYYCARISTGISSYYVMDAWGQGTTVTVSS
VL: EIVLTQSPGTLSLSPGERATLSCERSSGDIGDTYVSWYQQKPGQAPRLLIYGNDQRPSGIPDRFSGSGSGTDFTLTISRLEPEDFAVYYCQSYDSDIDIVFGGGTKVEIK
notes: Humanized IgG
B2: hBDI-5H1.9 (antibody, V domains shown)
VH: B1 VH with V80A, M84I
VL: DFVLTQSPDSLAVSLGERATINCERSSGDIGDTYVSWYQQKPGQPPKNVIYGNDQRPSGVPDRFSGSGSGNSATLTISSLQAEDVAVYFCQSYDSDIDIVFGGGTKVEIK
notes: Humanized IgG
B3: hBDI-5H1.10 (antibody, V domains shown)
VH: B1 VH with V80A, M84I
VL: DFQLTQSPSSLSASVGDRVTITCERSSGDIGDTYVSWYQQKPGKAPKNVIYGNDQRPSGVPSRFSGSGSGNSATLTISSLQPEDFATYFCQSYDSDIDIVFGQGTKVEIK
notes: Humanized IgG
B4: hBDI-5H1.4 (antibody, V domains shown)
VH: B1 VH
VL: B1 VL with I2F, L49V
notes: Humanized IgG
B5: hBDI-5H1.11 (antibody, V domains shown)
VH: EVQLVESGGGLVQPGGSLRLSCAFSGFSLSTFGMGVGWIRQAPGKGLEWLANIWWDDDKYYNPSLKNRLTISKDTSKNQAYLQINSLRAEDTAVYYCARISTGISSYYVMDAWGQGTLVTVSS
VL: B2 VL
notes: Humanized IgG
B6: hBDI-5H1.12 (antibody, V domains shown)
VH: B5 VH
VL: B3 VL
notes: Humanized IgG
B7: 9E8.4-SS-4G8.3 DVD-Ig (PR-1563990) (bispecific antibody, human IgG1, kappa, L234A L235A)
heavy: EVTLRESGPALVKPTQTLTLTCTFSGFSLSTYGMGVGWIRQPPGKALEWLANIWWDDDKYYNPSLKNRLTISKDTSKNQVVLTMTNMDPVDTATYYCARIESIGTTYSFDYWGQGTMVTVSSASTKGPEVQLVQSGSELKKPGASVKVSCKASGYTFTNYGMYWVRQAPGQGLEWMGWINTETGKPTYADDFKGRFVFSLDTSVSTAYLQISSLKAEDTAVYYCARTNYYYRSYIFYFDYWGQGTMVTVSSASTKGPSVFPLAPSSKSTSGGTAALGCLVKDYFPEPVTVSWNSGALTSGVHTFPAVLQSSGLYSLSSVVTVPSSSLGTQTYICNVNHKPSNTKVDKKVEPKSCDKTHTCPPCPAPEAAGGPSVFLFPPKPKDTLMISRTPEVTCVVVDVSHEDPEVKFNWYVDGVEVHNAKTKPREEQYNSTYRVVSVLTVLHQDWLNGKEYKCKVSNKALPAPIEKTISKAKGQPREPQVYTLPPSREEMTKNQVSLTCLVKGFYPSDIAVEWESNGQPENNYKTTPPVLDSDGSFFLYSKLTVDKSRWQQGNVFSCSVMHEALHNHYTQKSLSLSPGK
light: EFVLTQSPGTLSLSPGERATLSCERSSGDIGDSYVSWYQQKPGQAPRLVIYADDQRPSGIPDRFSGSGSGTDFTLTISRLEPEDFAVYYCQSYDINIDIVFGGGTKVEIKGTVAAPDTVLTQSPATLSLSPGERATLSCRASESVSTHMHWYQQKPGQAPRLLIYGASNLESGVPARFSGSGSGTDFTLTISSLEPEDFAVYFCQQSWNDPFTFGQGTKLEIKRTVAAPSVFIFPPSDEQLKSGTASVVCLLNNFYPREAKVQWKVDNALQSGNSQESVTEQDSKDSTYSLSSTLTLSKADYEKHKVYACEVTHQGLSSPVTKSFNRGEC
B8: 9E8.4-LS-4G8.3 DVD-Ig (PR-1564009) (bispecific antibody, human IgG1, kappa, L234A L235A)
heavy: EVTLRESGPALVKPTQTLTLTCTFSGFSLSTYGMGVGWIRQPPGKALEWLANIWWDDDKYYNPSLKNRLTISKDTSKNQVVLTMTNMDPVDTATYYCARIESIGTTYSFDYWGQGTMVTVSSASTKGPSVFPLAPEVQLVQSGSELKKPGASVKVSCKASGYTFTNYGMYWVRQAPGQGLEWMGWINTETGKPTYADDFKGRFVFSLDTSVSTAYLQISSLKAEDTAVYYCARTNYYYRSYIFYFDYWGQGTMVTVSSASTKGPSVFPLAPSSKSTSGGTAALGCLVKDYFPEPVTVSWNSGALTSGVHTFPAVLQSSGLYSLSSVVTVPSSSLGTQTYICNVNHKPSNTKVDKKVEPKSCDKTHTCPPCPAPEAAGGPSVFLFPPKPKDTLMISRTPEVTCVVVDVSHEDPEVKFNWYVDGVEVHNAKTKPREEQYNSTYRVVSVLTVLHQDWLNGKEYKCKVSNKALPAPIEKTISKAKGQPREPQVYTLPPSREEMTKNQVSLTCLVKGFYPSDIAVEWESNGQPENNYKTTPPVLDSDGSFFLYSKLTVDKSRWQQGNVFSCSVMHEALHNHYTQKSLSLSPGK
light: B7 light
B9: 9E8.4-SL-4G8.3 DVD-Ig (PR-1563998) (bispecific antibody, human IgG1, kappa, L234A L235A)
heavy: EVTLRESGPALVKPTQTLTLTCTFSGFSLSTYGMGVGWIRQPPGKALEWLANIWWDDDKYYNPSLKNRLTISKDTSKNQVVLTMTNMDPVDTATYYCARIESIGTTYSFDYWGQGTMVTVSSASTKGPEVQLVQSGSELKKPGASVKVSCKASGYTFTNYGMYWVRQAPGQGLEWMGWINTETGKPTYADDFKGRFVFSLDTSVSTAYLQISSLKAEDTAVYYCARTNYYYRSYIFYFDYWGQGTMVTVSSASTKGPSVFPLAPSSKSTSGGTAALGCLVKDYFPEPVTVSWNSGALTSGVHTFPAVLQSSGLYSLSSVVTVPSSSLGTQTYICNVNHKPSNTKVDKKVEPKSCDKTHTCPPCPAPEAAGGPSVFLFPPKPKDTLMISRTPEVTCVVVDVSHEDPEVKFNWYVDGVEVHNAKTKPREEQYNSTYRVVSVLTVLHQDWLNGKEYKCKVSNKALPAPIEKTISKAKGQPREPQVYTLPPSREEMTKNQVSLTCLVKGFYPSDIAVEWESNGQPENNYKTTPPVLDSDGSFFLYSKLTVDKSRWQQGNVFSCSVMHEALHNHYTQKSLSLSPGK
light: EFVLTQSPGTLSLSPGERATLSCERSSGDIGDSYVSWYQQKPGQAPRLVIYADDQRPSGIPDRFSGSGSGTDFTLTISRLEPEDFAVYYCQSYDINIDIVFGGGTKVEIKGTVAAPSVFIFPPDTVLTQSPATLSLSPGERATLSCRASESVSTHMHWYQQKPGQAPRLLIYGASNLESGVPARFSGSGSGTDFTLTISSLEPEDFAVYFCQQSWNDPFTFGQGTKLEIKRTVAAPSVFIFPPSDEQLKSGTASVVCLLNNFYPREAKVQWKVDNALQSGNSQESVTEQDSKDSTYSLSSTLTLSKADYEKHKVYACEVTHQGLSSPVTKSFNRGEC
B10: 4G8.3-GS-9E8.4E DVD-Ig (PR-1575832) (bispecific antibody, human IgG1, kappa, L234A L235A)
heavy: EVQLVQSGSELKKPGASVKVSCKASGYTFTNYGMYWVRQAPGQGLEWMGWINTETGKPTYADDFKGRFVFSLDTSVSTAYLQISSLKAEDTAVYYCARTNYYYRSYIFYFDYWGQGTMVTVSSGGGGSGGGGSEVTLRESGPALVKPTQTLTLTCTFSGFSLSTYGMGVGWIRQPPGKALEWLANIWWDDDKYYNPSLKNRLTISKDTSKNQVVLTMTNMDPVDTATYYCARIESIGTTYSFDYWGQGTMVTVSSASTKGPSVFPLAPSSKSTSGGTAALGCLVKDYFPEPVTVSWNSGALTSGVHTFPAVLQSSGLYSLSSVVTVPSSSLGTQTYICNVNHKPSNTKVDKKVEPKSCDKTHTCPPCPAPEAAGGPSVFLFPPKPKDTLMISRTPEVTCVVVDVSHEDPEVKFNWYVDGVEVHNAKTKPREEQYNSTYRVVSVLTVLHQDWLNGKEYKCKVSNKALPAPIEKTISKAKGQPREPQVYTLPPSREEMTKNQVSLTCLVKGFYPSDIAVEWESNGQPENNYKTTPPVLDSDGSFFLYSKLTVDKSRWQQGNVFSCSVMHEALHNAYTQKSLSLSPGK
light: DTVLTQSPATLSLSPGERATLSCRASESVSTHMHWYQQKPGQAPRLLIYGASNLESGVPARFSGSGSGTDFTLTISSLEPEDFAVYFCQQSWNDPFTFGQGTKLEIKRGGSGGGGSGEFVLTQSPGTLSLSPGERATLSCERSSGDIGESYVSWYQQKPGQAPRLVIYADDQRPSGIPDRFSGSGSGTDFTLTISRLEPEDFAVYYCQSYDINIDIVFGGGTKVEIKRTVAAPSVFIFPPSDEQLKSGTASVVCLLNNFYPREAKVQWKVDNALQSGNSQESVTEQDSKDSTYSLSSTLTLSKADYEKHKVYACEVTHQGLSSPVTKSFNRGEC
B11: 4G8.3-SS-9E8.4 DVD-Ig (PR-1564011) (bispecific antibody, human IgG1, kappa, L234A L235A)
heavy: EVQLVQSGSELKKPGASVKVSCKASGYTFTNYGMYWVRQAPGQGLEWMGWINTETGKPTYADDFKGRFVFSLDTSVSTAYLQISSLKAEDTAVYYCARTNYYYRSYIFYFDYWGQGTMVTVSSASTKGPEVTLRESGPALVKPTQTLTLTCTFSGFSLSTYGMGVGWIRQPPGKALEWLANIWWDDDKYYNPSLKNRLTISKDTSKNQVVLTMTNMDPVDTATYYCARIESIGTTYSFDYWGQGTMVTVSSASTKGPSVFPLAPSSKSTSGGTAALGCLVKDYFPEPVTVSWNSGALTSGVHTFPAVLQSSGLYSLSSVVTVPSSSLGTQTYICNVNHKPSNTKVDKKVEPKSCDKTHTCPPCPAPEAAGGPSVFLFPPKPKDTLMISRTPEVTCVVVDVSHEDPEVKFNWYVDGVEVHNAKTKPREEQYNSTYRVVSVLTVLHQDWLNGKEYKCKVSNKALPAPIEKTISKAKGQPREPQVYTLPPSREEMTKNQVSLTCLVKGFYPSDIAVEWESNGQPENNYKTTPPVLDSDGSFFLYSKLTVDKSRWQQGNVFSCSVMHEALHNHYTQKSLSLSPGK
light: DTVLTQSPATLSLSPGERATLSCRASESVSTHMHWYQQKPGQAPRLLIYGASNLESGVPARFSGSGSGTDFTLTISSLEPEDFAVYFCQQSWNDPFTFGQGTKLEIKRTVAAPEFVLTQSPGTLSLSPGERATLSCERSSGDIGDSYVSWYQQKPGQAPRLVIYADDQRPSGIPDRFSGSGSGTDFTLTISRLEPEDFAVYYCQSYDINIDIVFGGGTKVEIKGTVAAPSVFIFPPSDEQLKSGTASVVCLLNNFYPREAKVQWKVDNALQSGNSQESVTEQDSKDSTYSLSSTLTLSKADYEKHKVYACEVTHQGLSSPVTKSFNRGEC

These binders were tested against T1, Human PDGF-BB (human, UniProt P01127 82-190) (assay: SPR (Biacore), antibody captured via anti-human Fc, antigen in solution).
T1 construct: Recombinant human PDGF-BB, a homodimer of two B chains; also called hPDGF-BB; huPDGF-BB
T1 sequence (P01127 82-190 limits assumed): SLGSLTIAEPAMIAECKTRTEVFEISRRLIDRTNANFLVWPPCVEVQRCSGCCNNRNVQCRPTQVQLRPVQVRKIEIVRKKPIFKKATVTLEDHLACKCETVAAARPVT
Procedure: For example, approximately 9000 RU of goat anti-human Fc specific polyclonal antibody (Thermo Fisher Scientific Inc., Rockford, Ill.) diluted in 10 mM sodium acetate (pH 4.5) is directly immobilized across a CM5 research grade biosensor chip using a standard amine coupling kit according to manufacturer's instructions and procedures at 25 μg/ml. Unreacted moieties on the biosensor surface were blocked with ethanolamine. For kinetic analysis, rate equations derived from the 1:1 Langmuir binding model were fitted simultaneously to multiple antigen injections (using global fit analysis) with the use of Scrubber 2 (BioLogic Software), Biacore Biaevaluation 4.0.1 software or Biacore T100 Evaluation software. Purified antibodies or DVD-Ig molecules were diluted in running buffer for capture across goat anti-human Fc reaction surfaces. Antibodies or DVD-Ig molecules to be captured as a ligand (1 μg/ml) were injected over reaction matrices at a flow rate of 10 μl/minute. During the assay, all measurements were referenced against the capture surface alone (i.e., with no captured antibody or DVD-Ig molecule). […] The equilibrium dissociation constant KD (M) of the reaction between antibodies and the target antigen was then calculated from the kinetic rate constants by the following formula: KD=Koff/Kₒₙ. Binding was recorded as a function of time and kinetic rate constants were calculated.
A Kd of at most 0.45 nM and a kon of at least 1e+07 M⁻¹ s⁻¹ were found for B1 in this work. A Kd of at most 0.31 nM and a kon of at least 1e+07 M⁻¹ s⁻¹ were found for B2 in this work. A Kd of at most 0.23 nM and a kon of at least 1e+07 M⁻¹ s⁻¹ were found for B3 in this work. A Kd of at most 1.4 nM and a kon of at least 1e+07 M⁻¹ s⁻¹ were found for B4 in this work. A Kd of at most 0.37 nM and a kon of at least 1e+07 M⁻¹ s⁻¹ were found for B5 in this work. A Kd of at most 0.23 nM and a kon of at least 1e+07 M⁻¹ s⁻¹ were found for B6 in this work.

What follows are binders tested against recombinant human PDGF-BB (human, UniProt P01127 82-190) (assay: cell-based or functional assay).
recombinant human PDGF-BB, sequence (P01127 82-190 limits assumed): as above
For B7, the “NIH-3T3 hPDGF-BB Potency IC50” value was 0.094 nM. B8 was tested, and the “NIH-3T3 hPDGF-BB Potency IC50” value was 0.104 nM. In the case of B9, the “NIH-3T3 hPDGF-BB Potency IC50” value is reported as 0.091 nM. For B10, the “NIH-3T3 hPDGF-BB Potency IC50” value was over 5 nM. B11 was tested, and the “NIH-3T3 hPDGF-BB Potency IC50” value was 5.51 nM.
